# Residue numbers refer to the chain shown, from its start.
# B1: EGFR-CD3 DuetMab with anti-CD3 variant AZ Vκ 29 + AZ VH SN82 (bispecific antibody, part only; not given: anti-EGFR arm, constant regions, V domains shown, not shown: another chain or arm of the molecule; a dimerising Fc or GST; small tags and cut ends)
# VH: EVQLVESGGALVKPGGSLRLSCAASGFTFSNAWMHWVRQAPGKQLEWVAQIKDRSQTYATYYAESVKGRFTISRDDSKNTLYLQMNSLKTEDTAVYYCRGVYYANTPFDYWGQGTLVTVSS
# VL: DIVMTQSPLSLPVTPGEPASISCRSSQSLVHNTGNTYLSWYLQKPGQSPQSLIYKVSNRASGVPDRFSGSGSGTDFTLKISRVEAEDVGVYYCGQGTQFPFTFGSGTKVEIK
# B2: EGFR-CD3 DuetMab with anti-CD3 variant AZ Vκ 26 + AZ VH E79 (bispecific antibody, part only; not given: anti-EGFR arm, constant regions, V domains shown, not shown: another chain or arm of the molecule; a dimerising Fc or GST; small tags and cut ends)
# VH: B1 VH with S30T, N31E, N105V
# VL: B1 VL with F99A, T102S
# B3: EGFR-CD3 DuetMab with anti-CD3 variant AZ Vκ 29 + AZ VH R79 (bispecific antibody, part only; not given: anti-EGFR arm, constant regions, V domains shown, not shown: another chain or arm of the molecule; a dimerising Fc or GST; small tags and cut ends)
# VH: B1 VH with S30T, N31R, N105V
# VL: B1 VL
# B4: EGFR-CD3 DuetMab with anti-CD3 variant AZ Vκ 29 + AZ VH E79 (bispecific antibody, part only; not given: anti-EGFR arm, constant regions, V domains shown, not shown: another chain or arm of the molecule; a dimerising Fc or GST; small tags and cut ends)
# VH: B1 VH with S30T, N31E, N105V
# VL: B1 VL
# B5: EGFR-CD3 DuetMab with anti-CD3 variant AZ Vκ 26 + AZ VH E75 (bispecific antibody, part only; not given: anti-EGFR arm, constant regions, V domains shown, not shown: another chain or arm of the molecule; a dimerising Fc or GST; small tags and cut ends)
# VH: B1 VH with S30T, N31E, T106A
# VL: B1 VL with F99A, T102S
# B6: EGFR-CD3 DuetMab with anti-CD3 variant AZ Vκ 17 + AZ VH R75 (bispecific antibody, part only; not given: anti-EGFR arm, constant regions, V domains shown, not shown: another chain or arm of the molecule; a dimerising Fc or GST; small tags and cut ends)
# VH: B1 VH with S30T, N31R, T106A
# VL: B1 VL with F99A
# B7: EGFR-CD3 DuetMab with anti-CD3 variant AZ Vκ 17 + AZ VH E79 (bispecific antibody, part only; not given: anti-EGFR arm, constant regions, V domains shown, not shown: another chain or arm of the molecule; a dimerising Fc or GST; small tags and cut ends)
# VH: B1 VH with S30T, N31E, N105V
# VL: B1 VL with F99A
# B8: EGFR-CD3 DuetMab with anti-CD3 variant AZ Vκ 26 + AZ VH E82 (bispecific antibody, part only; not given: anti-EGFR arm, constant regions, V domains shown, not shown: another chain or arm of the molecule; a dimerising Fc or GST; small tags and cut ends)
# VH: B1 VH with S30T, N31E
# VL: B1 VL with F99A, T102S
# B9: EGFR-CD3 DuetMab with anti-CD3 variant AZ Vκ 29 + AZ VH E75 (bispecific antibody, part only; not given: anti-EGFR arm, constant regions, V domains shown, not shown: another chain or arm of the molecule; a dimerising Fc or GST; small tags and cut ends)
# VH: B1 VH with S30T, N31E, T106A
# VL: B1 VL
# B10: EGFR-CD3 DuetMab with anti-CD3 variant AZ Vκ 17 + AZ VH R79 (bispecific antibody, part only; not given: anti-EGFR arm, constant regions, V domains shown, not shown: another chain or arm of the molecule; a dimerising Fc or GST; small tags and cut ends)
# VH: B1 VH with S30T, N31R, N105V
# VL: B1 VL with F99A
# B11: EGFR-CD3 DuetMab with anti-CD3 variant AZ Vκ 29 + AZ VH R75 (bispecific antibody, part only; not given: anti-EGFR arm, constant regions, V domains shown, not shown: another chain or arm of the molecule; a dimerising Fc or GST; small tags and cut ends)
# VH: B1 VH with S30T, N31R, T106A
# VL: B1 VL
# B12: EGFR-CD3 DuetMab with anti-CD3 variant AZ Vκ 26 + AZ VH R75 (bispecific antibody, part only; not given: anti-EGFR arm, constant regions, V domains shown, not shown: another chain or arm of the molecule; a dimerising Fc or GST; small tags and cut ends)
# VH: B1 VH with S30T, N31R, T106A
# VL: B1 VL with F99A, T102S
# B13: EGFR-CD3 DuetMab with anti-CD3 variant AZ Vκ 17 + AZ VH SN79 (bispecific antibody, part only; not given: anti-EGFR arm, constant regions, V domains shown, not shown: another chain or arm of the molecule; a dimerising Fc or GST; small tags and cut ends)
# VH: B1 VH with N105V
# VL: B1 VL with F99A
# B14: AZ Vκ+AZ VH IgG1-TM (antibody, V domains shown)
# VH: QVQLVESGGGVVQPGRSLRLSCAASGFTFTKAWMHWVRQAPGKQLEWVAQIKDKSNSYATYYADSVKGRFTISRDDSKNTLYLQMNSLRAEDTAVYYCRGVYYALSPFDYWGQGTLVTVSS
# VL: B1 VL with S7T, P12S, E17Q, R24K, T33N, G34A, A60F, F99Y
# notes: also called parental AZ Vκ+AZ VH IgG1-TM; parental anti-CD3 antibody
# B15: AZ Vκ 7 + AZ VH 21 (antibody, IgG1, V domains shown)
# VH: B1 VH with W33Y, T57S, N105L, T106S
# VL: B1 VL with F99Y
# notes: member of the group m34
# B16: AZ Vκ 7 + AZ VH 13 (antibody, IgG1, V domains shown)
# VH: B1 VH with S30T, N31K, W33Y, T57S, N105L, T106S
# VL: B1 VL with F99Y
# notes: member of the group m34
# Biological target: Biotinylated recombinant human CD3εδ (Acro Biosystems, CDD-H82W6) (human) (UniProt P07766)
# Assay: Octet BLI, biotinylated CD3εδ on streptavidin sensors, 1:1 model
# Biotinylated recombinant human CD3εδ (Acro Biosystems, CDD-H82W6) (human), sequence (P07766 23-126, stated change not applied, chain 1 of 2): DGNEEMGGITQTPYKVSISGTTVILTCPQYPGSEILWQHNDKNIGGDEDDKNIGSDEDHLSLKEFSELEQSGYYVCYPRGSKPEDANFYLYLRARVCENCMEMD
# Biotinylated recombinant human CD3εδ (Acro Biosystems, CDD-H82W6) (human), sequence (P04234 22-105, stated change not applied, chain 2 of 2, further chain): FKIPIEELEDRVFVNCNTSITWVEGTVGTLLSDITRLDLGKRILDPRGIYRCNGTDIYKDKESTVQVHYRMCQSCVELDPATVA
Kd,koff,kon,Binder
1860 nM,0.0422 s⁻¹,22700 M⁻¹ s⁻¹,B1
4660 nM,0.0511 s⁻¹,11000 M⁻¹ s⁻¹,B2
878 nM,0.0487 s⁻¹,55500 M⁻¹ s⁻¹,B3
4580 nM,0.118 s⁻¹,25800 M⁻¹ s⁻¹,B4
2280 nM,0.0172 s⁻¹,7540 M⁻¹ s⁻¹,B5
266 nM,0.00644 s⁻¹,24200 M⁻¹ s⁻¹,B6
5620 nM,0.0497 s⁻¹,8850 M⁻¹ s⁻¹,B7
3920 nM,0.0287 s⁻¹,7330 M⁻¹ s⁻¹,B8
2220 nM,0.0404 s⁻¹,18200 M⁻¹ s⁻¹,B9
734 nM,0.018 s⁻¹,24600 M⁻¹ s⁻¹,B10
224 nM,0.0119 s⁻¹,53300 M⁻¹ s⁻¹,B11
217 nM,0.00605 s⁻¹,27900 M⁻¹ s⁻¹,B12
2050 nM,0.032 s⁻¹,15600 M⁻¹ s⁻¹,B13

# Biological target: T1, Cynomolgus monkey CD3 on HSC-F cells (cynomolgus monkey, UniProt Q95LI5 22-198; Q95LI8 22-171; Q95LI7 23-181)
# T1 construct: whole, on cells; CD3 complex; also called cyCD3+; cynomolgus CD3+ cells
# Assay: flow cytometry on HSC-F cells (cyCD3+), detection with Alexa Fluor 647 goat F(ab')2 anti-human IgG Fcγ
# Description: (§1) Flow Cytometry was used to determine specific cell surface antigen binding. The human leukemia T cell lines HPB-ALL, Jurkat, Jurkat TCR KO, and cynomolgus T cell line HSC-F were used to assess human CD3 and cynomolgus CD3 binding, respectively. Briefly, 1×10⁵ cells were suspended in FACS buffer (1×PBS, pH 7.2 supplemented with 2% heat-inactivated FBS, 0.1% sodium azide and 2 mM EDTA) and placed into each well of a round-bottom 96-well plate. Antibodies were diluted to various concentrations using FACS buffer and added to the cells. Antibodies and cells were washed twice with FACS buffer after incubation at 4° C. for 30 min. Cell surface antigen binding of antibodies was detected with Alexa Fluor 647-conjugated goat F(ab′)₂ fragment specifically against human IgG Fcγ fragment. Data was collected using a BD FACSymphony A3 Cell Analyzer (BD Biosciences). Data was analyzed with FlowJo v10.6.1 and plotted using GraphPad Prism v9.0.0.
# T1 sequence (Q95LI5 22-198, chain 1 of 3): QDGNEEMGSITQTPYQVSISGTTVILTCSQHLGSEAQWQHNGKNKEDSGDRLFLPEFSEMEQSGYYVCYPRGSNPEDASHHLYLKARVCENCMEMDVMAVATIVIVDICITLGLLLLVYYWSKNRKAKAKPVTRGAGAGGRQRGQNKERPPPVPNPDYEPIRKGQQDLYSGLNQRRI
# T1 sequence (Q95LI8 22-171, chain 2 of 3): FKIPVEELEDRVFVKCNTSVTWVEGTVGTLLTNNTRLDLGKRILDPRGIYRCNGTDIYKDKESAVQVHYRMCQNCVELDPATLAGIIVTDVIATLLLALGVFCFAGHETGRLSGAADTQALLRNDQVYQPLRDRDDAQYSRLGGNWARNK
# T1 sequence (Q95LI7 23-181, chain 3 of 3): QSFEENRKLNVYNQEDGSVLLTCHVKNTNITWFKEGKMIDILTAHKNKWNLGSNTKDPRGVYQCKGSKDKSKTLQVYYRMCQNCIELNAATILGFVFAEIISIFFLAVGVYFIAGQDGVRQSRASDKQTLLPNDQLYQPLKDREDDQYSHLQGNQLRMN
row,EC50 (read off the curve),Binder
1,~40 nM,B14

# Biological target: T2, Human CD3 on HPB-ALL and Jurkat cells (human, UniProt P07766 23-207; P04234 22-171; P09693 23-182)
# T2 construct: whole, on cells; also called hCD3+; human CD3+ cells
# Assay: flow cytometry on HPB-ALL cells (hCD3+), detection with Alexa Fluor 647 goat F(ab')2 anti-human IgG Fcγ
# Description: as §1
# T2 sequence (P07766 23-207, chain 1 of 3): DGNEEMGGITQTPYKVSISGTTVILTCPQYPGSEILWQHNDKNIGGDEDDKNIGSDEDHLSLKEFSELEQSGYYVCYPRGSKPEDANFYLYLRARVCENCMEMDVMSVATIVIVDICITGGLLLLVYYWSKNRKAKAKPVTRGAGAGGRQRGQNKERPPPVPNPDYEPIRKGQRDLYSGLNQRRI
# T2 sequence (P04234 22-171, chain 2 of 3): as the sequence (Q95LI8 22-171, chain 2 of 3) above, with V5I, K15N, V20I, T32S, N33D, N34I, A64T, N74S, L83V, R141H counted along it
# T2 sequence (P09693 23-182, chain 3 of 3): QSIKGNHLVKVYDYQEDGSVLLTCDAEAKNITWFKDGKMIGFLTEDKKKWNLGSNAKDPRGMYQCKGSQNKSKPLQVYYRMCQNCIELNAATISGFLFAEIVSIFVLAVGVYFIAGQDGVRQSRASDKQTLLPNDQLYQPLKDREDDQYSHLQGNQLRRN
row,binding result,Binder
1,binds,B15
2,binds,B16

# Biological target: T1, Cynomolgus monkey CD3 on HSC-F cells
# Assay: flow cytometry on HSC-F cells (cyCD3++), detection with Alexa Fluor 647 goat F(ab')2 anti-human IgG Fcγ
# Description: as §1
EC50 (read off the curve),binding result,Binder
~40 nM,–,B14
–,binds,B15
–,binds,B16
